Consider two molecules from US10472605B2, “Serum-free medium” (National University of Ireland, Galway, priority 2014, dated 2019).

For assay [1], the system named is MSC. The assay can be described thus: Growth/proliferation of MSC isolated in 10% FBS and re-attached under serum-free conditions. It counts as cell-based. The following applies: 5 ng/ml; over 3 passages, days 5, 10 and 15; fibronectin-coated. How it is done:
Tissue culture flasks were pre-coated with FN (black), HA (blue), VN (red) or LN (green) and cells were allowed to adhere in serum-free conditions. Cell numbers were obtained after 5 days. Controls include serum-free plating without the presence of an ECM attachment factor and 10% FBS (grey). Results are representative of 3 biological replicates with n=2;
Cells were then cultured in the presence of growth factors and passaged every 5 days. Controls include serum free plating without growth factors and 10% FBS. Results are representative of 3 biological replicates with n=2;
Cells were then cultured in serum-free media containing FGF2 (5 ng/ml) in the presence of PGE2, cholesterol or lipoprotein for 5 days. Controls include serum free plating without growth factors 10% FBS (A). Cells were then cultured in the presence of lipoprotein and passaged every 5 days for 3 passages, controls include serum free plating without lipoprotein (B). Results are representative of 3 biological replicates with n=2;
(§1) Proliferation of the MSC attached in the presence of basic fibroblast growth factor (bFGF2, FGF2) was also assessed after 6 days.
Serum-free basal medium formulation was selected based on the literature describing low-serum cell culture of dental pulp stem cells (Tarle et al., 2010). […]

Assay [2] relates to MSC. The assay can be described thus: Attachment of MSC isolated in 10% FBS and re-attached under serum-free conditions. It counts as cell-based. The following applies: after 18 hours in a serum-free environment; vitronectin 0.5 μg/ml pre-coating.
Source text: Tissue culture flasks were pre-coated with fibronectin (FN; black), hylauronic acid (HA; blue), vitronectin (VN; red) or laminin (LN; green) and cells were allowed to adhere in serum-free conditions. Controls include serum-free plating without the presence of an extra-cellular matrix (ECM) attachment factor and 10% FBS (grey). Results are representative of 3 biological replicates with n=2;
MSC were attached on tissue culture flasks in the presence of EGF (red) or on tissue culture plastic precoated with FN (purple) or in the presence of EGF on fibronectin coated plastic (green) and passaged every 3 days. Controls include serum free plating without the presence of an ECM attachment factor (blue) and 10% FBS (black). Results are representative of 3 biological replicates with n=2;
as §1

B1: FGF4: fibroblast growth factor 4 (protein, UniProt P08620 31-206, looked up)
Fibroblast growth factor 4: APTAPNGTLEAELERRWESLVALSLARLPVAAQPKEAAVQSGAGDYLLGIKRLRRLYCNVGIGFHLQALPDGRIGGAHADTRDSLLELSPVERGVVSIFGVASRFFVAMSSKGKLYGSPFFTDECTFKEILLPNNYNAYESYKYPGMFIALSKNGKTKKGNRVSPTMKVTHFLPRL
In the case of B1, the “MSC proliferation in serum free medium” value in assay [1] is “increased MSC proliferation”.

B2: vitronectin: extra-cellular matrix attachment factor used to pre-coat flasks (protein, UniProt P04004 20-478, looked up)
Vitronectin: DQESCKGRCTEGFNVDKKCQCDELCSYYQSCCTDYTAECKPQVTRGDVFTMPEDEYTVYDDGEEKNNATVHEQVGGPSLTSDLQAQSKGNPEQTPVLKPEEEAPAPEVGASKPEGIDSRPETLHPGRPQPPAEEELCSGKPFDAFTDLKNGSLFAFRGQYCYELDEKAVRPGYPKLIRDVWGIEGPIDAAFTRINCQGKTYLFKGSQYWRFEDGVLDPDYPRNISDGFDGIPDNVDAALALPAHSYSGRERVYFFKGKQYWEYQFQHQPSQEECEGSSLSAVFEHFAMMQRDSWEDIFELLFWGRTSAGTRQPQFISRDWHGVPGQVDAAMAGRIYISGMAPRPSLAKKQRFRHRNRKGYRSQRGHSRGRNQNSRRPSRATWLSLFSSEESNLGANNYDDYRMDWLVPATCEPIQSVFFFSGDKYYRVNLRTRRVDTVDPPYPRSIAQYWLGCPAPGHL
Consider B2, for which the MSC attachment entry in assay [2] is “supported MSC attachment optimally”.
